Target: Fc(A680)-VH4127 conjugate (human, UniProt P01857 = IgG part, Alexa Fluor 680 (degree of labelling 1.7); H-PEG6-VH4127-NH2 joined enzymatically by microbial transglutaminase to the C-terminus of the Myc-tagged Fc | non-natural amino acid residues (not given); …)
Experiment: SPR

koff: 0.000236 s⁻¹
B1: His-tagged recombinant mouse LDLR (receptor)
chain: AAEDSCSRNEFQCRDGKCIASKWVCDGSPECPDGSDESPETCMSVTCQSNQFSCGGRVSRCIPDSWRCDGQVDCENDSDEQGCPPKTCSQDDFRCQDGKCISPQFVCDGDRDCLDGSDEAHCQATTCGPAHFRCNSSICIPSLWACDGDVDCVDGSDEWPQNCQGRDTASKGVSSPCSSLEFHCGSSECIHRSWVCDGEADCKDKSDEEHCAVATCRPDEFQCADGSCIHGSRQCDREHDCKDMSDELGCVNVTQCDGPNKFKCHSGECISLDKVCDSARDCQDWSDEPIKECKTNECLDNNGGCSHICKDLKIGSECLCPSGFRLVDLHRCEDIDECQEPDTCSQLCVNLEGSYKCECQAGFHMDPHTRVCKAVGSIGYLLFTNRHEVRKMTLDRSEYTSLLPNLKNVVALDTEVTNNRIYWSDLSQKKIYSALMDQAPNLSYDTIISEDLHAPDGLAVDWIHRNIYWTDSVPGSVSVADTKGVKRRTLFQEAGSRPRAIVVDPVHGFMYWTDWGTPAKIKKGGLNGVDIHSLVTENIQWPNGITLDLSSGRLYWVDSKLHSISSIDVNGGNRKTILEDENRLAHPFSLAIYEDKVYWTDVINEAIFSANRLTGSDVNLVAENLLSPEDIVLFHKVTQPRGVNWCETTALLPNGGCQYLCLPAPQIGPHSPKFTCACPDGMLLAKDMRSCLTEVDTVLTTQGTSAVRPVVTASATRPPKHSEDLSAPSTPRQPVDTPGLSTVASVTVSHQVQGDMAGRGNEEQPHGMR
